Results: publication PMC7272640, “Molecular docking, synthesis and biological evaluation of Vascular Endothelial Growth Factor (VEGF) B based peptide as antiangiogenic agent targeting the second domain of the Vascular Endothelial Growth Factor Receptor 1 (VEGFR1D2) for anticancer application” (Signal Transduction and Targeted Therapy, 2020)
Bridges are numbered along the chain shown (N, C = ends).

Experiments:
[1] = target: entire extracellular portion of VEGFR1; conditions: VEGFA to entire extracellular portion of VEGFR1; no reference given; cited from earlier work
Procedure: (§1) Subsequently, to verify the ability of VGB3 to form a complex with VEGFR1D2, microscale thermophoresis (MST) measurements were performed using a VEGFR1D2-labeled with VGB3 at increasing concentrations. As well as measuring the Kd between VGB3 and its receptor this functional test will also confirm whether the refolded protein VEGFR1D2 assumes the correct conformation. Fluorescently labeled VEGFR1D2 purified and titrated as 1:1 with VGB3.

[2] = target: VEGFR1 D2; conditions: quantity not named as Kd in the text; cited from earlier work
Procedure: as §1

[3] = system: VEGFR1 versus VEGFR2; conditions: cited from earlier work
Text: Tumor angiogenesis is regulated by the binding of VEGF to receptors (VEGFRs). The major mediator of tumor angiogenesis is VEGFA, more commonly referred to as VEGF. […] However, the role of the VEGFR1 in VEGF-mediated angiogenesis remains a mystery.

[4] = target: VEGFR1 domain 2 (Homo sapiens) (UniProt P17948); conditions: cited from earlier work
[5] = target: VEGFR-1 (as used in the ELISA-based displacement assay) (UniProt P17948)
[6] = target: VEGFR-1 (as used in the ELISA-based displacement assay) (UniProt P17948); test: ELISA; VEGFR-1-binding ELISA-based displacement assay; displacement of btVEGF165 (100 pM) by VGB3
[7] = target: T1, His-tagged VEGFR1D2 (second extracellular domain of Vascular Endothelial Growth Factor Receptor 1) (UniProt P17948 129-226, fluorescently labeled); test: MST; fixed concentration of fluorescently labeled VEGFR1D2; VGB3 titrated at increasing concentrations, initial concentration of ligand 0.25 mM; conditions: both partners purified
T1 construct: VEGFR1 (Flt-1), second extracellular domain; The PDB entries are the cited complexes of VEGFR1D2 used for the design, not necessarily the limits of this construct
T1 sequence (P17948 129-226): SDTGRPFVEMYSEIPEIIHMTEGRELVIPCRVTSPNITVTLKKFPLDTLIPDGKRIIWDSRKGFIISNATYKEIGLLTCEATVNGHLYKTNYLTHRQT

Chain of VEGFR-1 (as used in the ELISA-based displacement assay) (P17948 27-1338): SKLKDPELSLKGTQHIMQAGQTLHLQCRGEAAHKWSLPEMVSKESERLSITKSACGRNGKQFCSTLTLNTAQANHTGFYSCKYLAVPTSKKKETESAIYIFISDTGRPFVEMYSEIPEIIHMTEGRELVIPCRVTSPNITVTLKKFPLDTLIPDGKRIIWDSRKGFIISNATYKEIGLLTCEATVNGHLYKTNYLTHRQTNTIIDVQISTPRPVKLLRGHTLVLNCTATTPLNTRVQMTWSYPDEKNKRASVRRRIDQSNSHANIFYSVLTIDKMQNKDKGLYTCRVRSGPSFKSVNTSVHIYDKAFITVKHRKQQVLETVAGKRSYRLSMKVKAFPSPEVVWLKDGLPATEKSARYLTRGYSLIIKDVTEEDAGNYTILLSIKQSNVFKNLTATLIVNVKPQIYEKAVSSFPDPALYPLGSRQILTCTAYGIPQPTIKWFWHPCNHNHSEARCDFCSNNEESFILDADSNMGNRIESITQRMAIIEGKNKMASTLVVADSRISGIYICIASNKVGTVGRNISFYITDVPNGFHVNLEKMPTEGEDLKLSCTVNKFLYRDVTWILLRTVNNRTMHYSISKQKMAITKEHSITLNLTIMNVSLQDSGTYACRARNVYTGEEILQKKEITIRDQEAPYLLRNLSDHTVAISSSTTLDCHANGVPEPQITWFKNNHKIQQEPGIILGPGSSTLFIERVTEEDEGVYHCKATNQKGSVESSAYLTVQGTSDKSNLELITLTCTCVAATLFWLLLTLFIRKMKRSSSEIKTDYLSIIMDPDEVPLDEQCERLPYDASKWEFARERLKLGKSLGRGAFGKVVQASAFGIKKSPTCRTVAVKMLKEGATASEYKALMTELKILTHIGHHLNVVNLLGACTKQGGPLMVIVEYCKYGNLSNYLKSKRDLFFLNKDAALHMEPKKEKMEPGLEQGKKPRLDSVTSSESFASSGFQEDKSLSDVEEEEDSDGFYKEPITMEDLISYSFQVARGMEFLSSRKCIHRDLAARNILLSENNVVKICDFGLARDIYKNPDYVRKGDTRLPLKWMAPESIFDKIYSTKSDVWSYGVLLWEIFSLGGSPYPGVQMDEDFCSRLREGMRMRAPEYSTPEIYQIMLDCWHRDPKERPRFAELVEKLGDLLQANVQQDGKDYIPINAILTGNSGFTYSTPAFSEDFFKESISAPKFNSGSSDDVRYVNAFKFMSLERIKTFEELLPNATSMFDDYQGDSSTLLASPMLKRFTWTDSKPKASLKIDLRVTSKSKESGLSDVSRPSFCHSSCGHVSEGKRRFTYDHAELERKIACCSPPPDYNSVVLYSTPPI
Chain of VEGFR1 domain 2 (Homo sapiens) (P17948 151-214): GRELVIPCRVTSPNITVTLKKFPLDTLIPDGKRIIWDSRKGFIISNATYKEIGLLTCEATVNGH

## VEGF
[1]
  Kd: ~50 nM
[2]
  tight association between VEGFR1 D2 and VEGF: 113 pM
[3]
  affinity of VEGFR1 for VEGF, times higher than VEGFR2: 10 times

## VEGFA (from UniProt P15692)
[4]
  Kd: 50 nM

B1: VGB3 (mimetic decapeptide based on VEGFB) (peptide)
peptide: H-ECRPPDDGLC-OH
modifications: disulfide 2-10 (inferred)
notes: VEGFB, strand beta7, printed as 102-ECRP-105; VEGFB, loop connecting beta3 to beta4, printed as 62-PDDGL-66; Cys residue added to the C terminus to make the disulfide bond; also called VGB3 peptide; source: synthetic peptide (solid-phase peptide synthesis)
[5]
  inhibition of VEGF165 (0.75 pM)-stimulated proliferation of 4T1 mammary carcinoma cells (MTT assay), IC50: 30 nM
[6]
  percent displacement of btVEGF165 (100 pM) at 100 μM VGB3: 63%
[7]
  Kd: 1960 ± 690 nM
  stoichiometry N: 1
